Data reported in article PMC4869123 (Scientific Reports, 2016).
*1 amine or outer side, *2 acyl side, *3 side chain or, on linkers, in order; H or OH if unused. Where a SMILES comes first, the peptide text is derived from it. Bridges are numbered along the chain shown (N, C = ends). Roman numbers before positions name the chains, in order. Where no end group is shown, it is not given here. [ ]: non-standard residue; d: D form. The star is where a group is joined. X1 = O=C(CCOCCOCCOCCOCCOCCOCCOCCOCCOCCOCCOCCOCCOCCOCCOCCOCCOCCOCCOCCOCCOCCC(=O)[*:2])[*:1]; X2 = CCNC(=O)CCOCCOCCOCCOCCOCCOCCOCCOCCOCCOCCOCCOCCOCCOCCOCCOCCOCCOCCOCCOCCOCCC(=O)*; CO(CH2CH2O)5CH2CH2CO = O=C(CCOCCOCCOCCOCCOCCC(=O)[*:2])[*:1]; Lys(Me2) = CN(C)CCCC[C@H](N)C(=O)O

B1: peptide 2 (peptide)
peptide: Ac-IVVTMPADLWDWIRA
modifications: not fully specified (C-terminus)
notes: analogue of peptide 1 with lysine to arginine at position 14; parent of the alanine scan; made on Rink resin; a C-terminal amide is surmised; source: synthetic peptide
B2: peptide 3 (peptide)
peptide: Ac-IVVTMPADLWDWIRK
modifications: not fully specified (C-terminus)
notes: analogue of peptide 2, K at position 15; made on Rink resin; a C-terminal amide is surmised; source: synthetic peptide
B3: peptide 27 (peptide)
peptide: Ac-IVVTMPADLWDWIMA
modifications: not fully specified (C-terminus)
notes: analogue of peptide 2, M at position 14; made on Rink resin; a C-terminal amide is surmised; source: synthetic peptide
B4: peptide 7 (peptide)
peptide: Ac-IVVTMPADLWAWIRA
modifications: not fully specified (C-terminus)
notes: analogue of peptide 2, A at position 11; made on Rink resin; a C-terminal amide is surmised; source: synthetic peptide
B5: peptide 15 (peptide)
peptide: Ac-IVATMPADLWDWIRA
modifications: not fully specified (C-terminus)
notes: analogue of peptide 2, A at position 3; made on Rink resin; a C-terminal amide is surmised; source: synthetic peptide
B6: peptide 20 (peptide)
peptide: Ac-IRVTMPADLWDWIRA
modifications: not fully specified (C-terminus)
notes: analogue of peptide 2, R at position 2; made on Rink resin; a C-terminal amide is surmised; source: synthetic peptide
B7: peptide 19 (peptide)
peptide: Ac-IQVTMPADLWDWIRA
modifications: not fully specified (C-terminus)
notes: analogue of peptide 2, Q at position 2; made on Rink resin; a C-terminal amide is surmised; source: synthetic peptide
B8: peptide 12 (peptide)
peptide: Ac-IVVTMAADLWDWIRA
modifications: not fully specified (C-terminus)
notes: analogue of peptide 2, A at position 6; made on Rink resin; a C-terminal amide is surmised; source: synthetic peptide
B9: peptide 14 (peptide)
peptide: Ac-IVVAMPADLWDWIRA
modifications: not fully specified (C-terminus)
notes: analogue of peptide 2, A at position 4; made on Rink resin; a C-terminal amide is surmised; source: synthetic peptide
B10: peptide 16 (peptide)
peptide: Ac-IAVTMPADLWDWIRA
modifications: not fully specified (C-terminus)
notes: analogue of peptide 2, A at position 2; made on Rink resin; a C-terminal amide is surmised; source: synthetic peptide
B11: peptide 22 (peptide)
peptide: Ac-IWVTMPADLWDWIRA
modifications: not fully specified (C-terminus)
notes: analogue of peptide 2, W at position 2; made on Rink resin; a C-terminal amide is surmised; source: synthetic peptide
B12: peptide 9 (peptide)
peptide: Ac-IVVTMPADAWDWIRA
modifications: not fully specified (C-terminus)
notes: analogue of peptide 2, A at position 9; made on Rink resin; a C-terminal amide is surmised; source: synthetic peptide
B13: peptide 13 (peptide)
peptide: Ac-IVVTAPADLWDWIRA
modifications: not fully specified (C-terminus)
notes: analogue of peptide 2, A at position 5; made on Rink resin; a C-terminal amide is surmised; source: synthetic peptide
B14: peptide 10 (peptide)
peptide: Ac-IVVTMPAALWDWIRA
modifications: not fully specified (C-terminus)
notes: analogue of peptide 2, A at position 8; made on Rink resin; a C-terminal amide is surmised; source: synthetic peptide
B15: peptide 6 (peptide)
peptide: Ac-IVVTMPADLWDAIRA
notes: analogue of peptide 2, A at position 12; made on Rink resin; a C-terminal amide is surmised; also called W12A variant; source: synthetic peptide
B16: peptide 17 (peptide)
peptide: Ac-AVVTMPADLWDWIRA
modifications: not fully specified (C-terminus)
notes: analogue of peptide 2, A at position 1; made on Rink resin; a C-terminal amide is surmised; source: synthetic peptide
B17: peptide 23 (peptide)
peptide: Ac-IYVTMPADLWDWIRA
modifications: not fully specified (C-terminus)
notes: analogue of peptide 2, Y at position 2; made on Rink resin; a C-terminal amide is surmised; source: synthetic peptide
B18: peptide 21 (peptide)
peptide: Ac-ITVTMPADLWDWIRA
modifications: not fully specified (C-terminus)
notes: analogue of peptide 2, T at position 2; made on Rink resin; a C-terminal amide is surmised; also called V2T; source: synthetic peptide
B19: peptide 28 (peptide)
peptide: Ac-IVVTMPADLWDWINA
modifications: not fully specified (C-terminus)
notes: analogue of peptide 2, N at position 14; made on Rink resin; a C-terminal amide is surmised; source: synthetic peptide
B20: peptide 5 (peptide)
peptide: Ac-IVVTMPADLWDWARA
modifications: not fully specified (C-terminus)
notes: analogue of peptide 2, A at position 13; made on Rink resin; a C-terminal amide is surmised; source: synthetic peptide
B21: peptide 4 (peptide)
peptide: Ac-IVVTMPADLWDWIAA
modifications: not fully specified (C-terminus)
notes: analogue of peptide 2, A at position 14; made on Rink resin; a C-terminal amide is surmised; source: synthetic peptide
B22: peptide 18 (peptide)
peptide: Ac-IHVTMPADLWDWIRA
modifications: not fully specified (C-terminus)
notes: analogue of peptide 2, H at position 2; made on Rink resin; a C-terminal amide is surmised; also called V2H; source: synthetic peptide
B23: peptide 8 (peptide)
peptide: Ac-IVVTMPADLADWIRA
modifications: not fully specified (C-terminus)
notes: analogue of peptide 2, A at position 10; made on Rink resin; a C-terminal amide is surmised; source: synthetic peptide

Molecular target: T1, human IL-17A (Homo sapiens, UniProt Q16552)
T1 construct: host or cells: added to BJ human fibroblasts (ATCC CRL2522)
Test: BJ human fibroblast cell assay, IL-17A stimulated GRO-α production
Assay type: cell-based
Settings: BJ human fibroblast cells, 1 ng/ml human IL-17A
Source text: For inhibitor screen, human BJ fibroblast cells (ATCC CRL2522) (American Type Culture Collection, VA) were used. For mouse cell based assay MLE-12 mouse epithelial cells (ATCC CRL2110) were used. Both cell lines were maintained in ATCC recommended media.

T1 sequence (Q16552 24-155): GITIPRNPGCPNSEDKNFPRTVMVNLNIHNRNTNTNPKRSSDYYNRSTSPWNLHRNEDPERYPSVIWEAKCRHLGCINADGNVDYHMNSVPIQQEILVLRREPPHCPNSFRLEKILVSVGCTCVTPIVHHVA

Compared with `CC[C@H](C)[C@H](NC(C)=O)C(=O)N[C@H](C(=O)N[C@H](C(=O)N[C@H](C(=O)N[C@H](C(=O)N1CCC[C@H]1C(=O)N[C@@H](C)C(=O)N[C@@H](CC(=O)O)C(=O)N[C@@H](CC(C)C)C(=O)N[C@@H](Cc1c[nH]c2ccccc12)C(=O)N[C@@H](CC(=O)O)C(=O)N[C@@H](Cc1c[nH]c2ccccc12)C(=O)N[C@H](C(=O)N[C@@H](CC(N)=O)C(=O)N[C@@H](CCCCN(C)C)C(=O)N[C@@H](CCCCNC(=O)CCOCCOCCOCCOCCOCCOCCOCCOCCOCCOCCOCCOCCOCCOCCOCCOCCOCCOCCOCCOCCOCCC(=O)NCCCC[C@H](NC(=O)[C@H](CCCCN(C)C)NC(=O)[C@H](CC(N)=O)NC(=O)[C@@H](NC(=O)[C@H](Cc1c[nH]c2ccccc12)NC(=O)[C@H](CC(=O)O)NC(=O)[C@H](Cc1c[nH]c2ccccc12)NC(=O)[C@H](CC(C)C)NC(=O)[C@H](CC(=O)O)NC(=O)[C@H](C)NC(=O)[C@@H]1CCCN1C(=O)[C@@H](NC(=O)[C@@H](NC(=O)[C@@H](NC(=O)[C@@H](NC(=O)[C@@H](NC(C)=O)[C@@H](C)CC)[C@@H](C)O)C(C)C)[C@@H](C)O)[C@@H](C)CC)[C@@H](C)CC)C(N)=O)C(N)=O)[C@@H](C)CC)[C@@H](C)CC)[C@@H](C)O)C(C)C)[C@@H](C)O` [Compound 47] (I: Ac-ITVTIPADLWDWIN[Lys(Me2)]K-NH2 / II: Ac-ITVTIPADLWDWIN[Lys(Me2)]K-NH2; linker I:16-II:16 via X1), Ac-IHVTIPADLWDWI-NH2 [Compound 36] is 11-fold higher in IC50: 16 nM for the first, 183 nM for the second.

First: CC[C@H](C)[C@H](NC(C)=O)C(=O)N[C@@H](Cc1c[nH]cn1)C(=O)N[C@H](C(=O)N[C@H](C(=O)N[C@H](C(=O)N1CCC[C@H]1C(=O)N[C@@H](C)C(=O)N[C@@H](CC(=O)O)C(=O)N[C@@H](CC(C)C)C(=O)N[C@@H](Cc1c[nH]c2ccccc12)C(=O)N[C@@H](CC(=O)O)C(=O)N[C@@H](Cc1c[nH]c2ccccc12)C(=O)N[C@H](C(=O)N[C@@H](CC(N)=O)C(N)=O)[C@@H](C)CC)[C@@H](C)CC)[C@@H](C)O)C(C)C [Compound 35]
Second: CCNC(=O)CCOCCOCCOCCOCCOCCOCCOCCOCCOCCOCCOCCOCCOCCOCCOCCOCCOCCOCCOCCOCCOCCC(=O)NCCCC[C@H](NC(=O)[C@@H](NC(=O)[C@H](Cc1c[nH]c2ccccc12)NC(=O)[C@H](CC(=O)O)NC(=O)[C@H](Cc1c[nH]c2ccccc12)NC(=O)[C@H](CC(C)C)NC(=O)[C@H](CC(=O)O)NC(=O)[C@H](C)NC(=O)[C@@H]1CCCN1C(=O)[C@@H](NC(=O)[C@@H](NC(=O)[C@@H](NC(=O)[C@@H](NC(=O)[C@@H](NC(C)=O)[C@@H](C)CC)[C@@H](C)O)C(C)C)[C@@H](C)O)[C@@H](C)CC)[C@@H](C)CC)C(=O)N[C@@H](CCCCN(C)C)C(N)=O [Compound 48] (Ac-ITVTIPADLWDWIK(X2)[Lys(Me2)]-NH2)
The IC50 of the first is 1.8-fold lower: 12 nM for the first, 21 nM for the second. The first is the more potent here.

Going from Ac-TIPADLWDWINK-NH2 [Compound 34] to `CC[C@H](C)[C@H](NC(C)=O)C(=O)N[C@H](C(=O)N[C@H](C(=O)N[C@H](C(=O)N[C@H](C(=O)N1CCC[C@H]1C(=O)N[C@@H](CCCCNC(=O)CCOCCOCCOCCOCCOCCC(=O)NCCCC[C@H](NC(=O)[C@@H]1CCCN1C(=O)[C@@H](NC(=O)[C@@H](NC(=O)[C@@H](NC(=O)[C@@H](NC(=O)[C@@H](NC(C)=O)[C@@H](C)CC)[C@@H](C)O)C(C)C)[C@@H](C)O)[C@@H](C)CC)C(=O)N[C@@H](CC(=O)O)C(=O)N[C@@H](CC(C)C)C(=O)N[C@@H](Cc1c[nH]c2ccccc12)C(=O)N[C@@H](CC(=O)O)C(=O)N[C@@H](Cc1c[nH]c2ccccc12)C(=O)N[C@H](C(=O)N[C@@H](CC(N)=O)C(=O)N[C@@H](CCCCN(C)C)C(N)=O)[C@@H](C)CC)C(=O)N[C@@H](CC(=O)O)C(=O)N[C@@H](CC(C)C)C(=O)N[C@@H](Cc1c[nH]c2ccccc12)C(=O)N[C@@H](CC(=O)O)C(=O)N[C@@H](Cc1c[nH]c2ccccc12)C(=O)N[C@H](C(=O)N[C@@H](CC(N)=O)C(=O)N[C@@H](CCCCN(C)C)C(N)=O)[C@@H](C)CC)[C@@H](C)CC)[C@@H](C)O)C(C)C)[C@@H](C)O` [Compound 42] (I: Ac-ITVTIPKDLWDWIN[Lys(Me2)]-NH2 / II: Ac-ITVTIPKDLWDWIN[Lys(Me2)]-NH2; linker I:7-II:7 via CO(CH2CH2O)5CH2CH2CO), the IC50 falls from > 1000 nM to 24 nM. The second is the more potent here.

Molecular target: T2, biotinylated recombinant human IL-17A (rhIL-17, R&D Systems #317-ILB) (human, UniProt Q16552 24-155, biotinylated)
T2 construct: IL-17A, human, recombinant; also called Biotinylated IL-17A; source: bought: R&D Systems
Test: not given
Settings: both partners purified

T2 sequence (Q16552 24-155): as the sequence (Q16552 24-155) above

B1 and B2 are within 1.5-fold of each other in IC50: 80 nM for the first, 66 nM for the second.

Compared with B3, B4 is 15-fold higher in IC50: 31 nM for the first, 474 nM for the second. The first is the more potent here.

Compared with B5, B6 is 49-fold lower in IC50: 5720 nM for the first, 117 nM for the second. The second is the more potent here.

Compared with B7, B8 is 37-fold higher in IC50: 71 nM for the first, 2650 nM for the second.

B9 and B10 are within 1.5-fold of each other in IC50: 195 nM for the first, 149 nM for the second.

B11 and B12 are within 1.5-fold of each other in IC50: 522 nM for the first, 640 nM for the second.

Going from B13 to B14, the IC50 rises from 11 nM to 4020 nM (370-fold).

First: B15
Second: B16
The IC50 of the first is 45-fold higher: 7450 nM for the first, 167 nM for the second. The second is the more potent here.

Compared with B17, B18 is 2.1-fold lower in IC50: 64 nM for the first, 31 nM for the second. The second is the more potent here.

First: B19
Second: B20
The IC50 of the first is 15-fold lower: 26 nM for the first, 402 nM for the second.

Going from B21 to B22, the IC50 falls from 172 nM to 45 nM (3.8-fold). The second is the more potent here.

In the case of B23, the IC50 is reported as 524 nM.
